Reference: US20060057669A1, “Inactive transcription factor tif-ia and uses thereof” (priority 2002, published 2006)

Legend:
Format in all cases: biochemical
[1] = tested on: Pol I transcription; assay: Complementation of Pol I transcription in nuclear extracts from rapamycin-treated FM3A cells
Procedure: (B) Complementation of transcriptional activity in nuclear extracts from rapamycin-treated cells. Transcription reactions contained nuclear extracts (30 μg) from untreated (NE) or rapamycin-treated (NERapa) FM3A cells. In lanes 3-7, fractions containing partially purified Pol I transcription factors were added to NERapa-containing reactions.
(C) TIF-IA activates transcription in nuclear extracts form rapamycin-treated cells. Reactions were complemented with either 1 μl (lanes 2 and 5) of cellular TIF-IA (PL-650 fraction) or 20 ng (lanes 3 and 6) of immunopurified recombinant TIF-IA that has been expressed in SF9 cells.
(A) mTOR rescues transcription in vitro. Pol I transcription was assayed in nuclear extracts from rapamycin-treated FM3A cells. Reactions were supplemented with 50 ng TIF-IA (lane 1) or 10 ng, 20 ng and 30 ng of HA-mTOR (lanes 3-5).
(B) S6K1 activates Pol I transcription in extracts from rapamycin-treated cells. NERapa was supplemented with 50 ng TIF-IA (lane 1) or 100, 150 and 200 ng of GST-S6K1 (lanes 3-5) or GST-S6K1dd (lanes 6-8).
(§1) Nuclear extracts were prepared from exponentially growing (8×10^5 cells/ml), density-arrested or PD98059-treated (CN Bioscience, Bad Soden, Germany) 40 μM, 0.5 hr) or rapamycin-treated FM3A cells (ATCC, Manassas, USA). 25 μl assays contained 50 ng of template DNA (pMr600/EcoRI), 30 μg nuclear extract proteins and 12 mM Hepes-KOH, [pH8.0], 0.1 mM EDTA, 5 mM MgCl2, 80 mM KCl, 10 mM creatine phosphate, 12% (v/v) glycerol, 0.66 mM each of ATP, GTP and CTP, 0.01 mM UTP and 0.5 μCi [α-^32P]UTP (5000 Ci/mmol). After incubation for 60 min at 30° C., RNA was extracted and analyzed on non-denaturing 5% polyacrylamide gels
mTOR and S6K1 were purified from HEK293T cells overexpressing HA-tagged mTOR or GST/myc-tagged S6K1, respectively. 5×10^6 cells were lysed in 0.8 ml IP buffer, centrifuged at 10,000×g for 20 min, and the supernatants were incubated for 4 hr at 4° C. with either 15 μg anti-HA antibodies bound to 20 μl protein G-agarose (for HA-mTOR) or 20 μl packed GST-glutathione beads (for GST-myc-S6K1). […]

[2] = target: T1, RSK2 (Mus musculus, UniProt P18654, A376E/A378E/F387I/G384D/H379Q/INS385D/L381M/N377E/Q380E/S369E/S386Y/T365E); assay: In vitro kinase assay with immunopurified RSK2
T1 construct: made in house; host or cells: HEK293T (kinase, immunopurified via HA); E. coli BL21(DE3) (GST substrate)
T1 sequence (P18654 with tags, fused parts or gaps with the stated changes): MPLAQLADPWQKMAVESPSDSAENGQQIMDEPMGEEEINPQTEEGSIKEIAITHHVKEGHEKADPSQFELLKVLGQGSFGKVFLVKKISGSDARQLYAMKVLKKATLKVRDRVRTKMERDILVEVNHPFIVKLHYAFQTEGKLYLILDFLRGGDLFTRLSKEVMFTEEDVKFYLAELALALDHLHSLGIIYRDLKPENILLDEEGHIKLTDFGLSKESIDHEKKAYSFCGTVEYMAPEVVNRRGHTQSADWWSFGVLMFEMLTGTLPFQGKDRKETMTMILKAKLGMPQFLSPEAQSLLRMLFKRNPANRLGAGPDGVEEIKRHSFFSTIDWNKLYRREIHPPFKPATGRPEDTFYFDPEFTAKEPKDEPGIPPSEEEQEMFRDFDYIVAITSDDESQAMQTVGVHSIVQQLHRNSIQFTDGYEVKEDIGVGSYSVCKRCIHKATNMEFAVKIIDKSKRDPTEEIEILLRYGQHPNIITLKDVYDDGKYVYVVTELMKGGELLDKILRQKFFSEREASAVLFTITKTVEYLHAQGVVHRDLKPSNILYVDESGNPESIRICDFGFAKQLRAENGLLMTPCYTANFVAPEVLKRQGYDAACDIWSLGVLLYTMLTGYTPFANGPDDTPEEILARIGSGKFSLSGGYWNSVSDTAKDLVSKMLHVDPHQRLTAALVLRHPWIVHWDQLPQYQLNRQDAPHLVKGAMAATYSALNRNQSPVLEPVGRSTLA
Procedure: (A) Tryptic peptide maps of recombinant TIF-IA phosphorylated by RSK2 in vitro. GST/TIF-IA409-651 was phosphorylated with HA-RSK-CA in vitro and the phosphopeptide pattern was compared with that of wild-type TIF-IA and TIF-IA1-632 labeled in vivo.
HA-tagged ERK1/2 or RSK2-CA was overexpressed in HEK293T cells, immunopurified and immobilized to protein G agarose. After stringent washing, the beads were suspended in 20 μl of 1.5× kinase assay buffer (75 mM Tris-HCl [pH 8.0], 15 mM MgCl2, 1.5 mM DTT, 5% glycerol) and assayed for activity. 30 μl reactions contained 100 μM ATP, 0.2 μCi of […] (5000 Ci/mmol), 0.5-1 μg S6 peptide (RRSSLRA) or GST/TIF-IA (Yuan et al. EMBO Reports 3 (2002) 1082-1087) and 10 fmoles RSK. After incubation for 30 min at 30° C., 5 μl of the supernatants were spotted onto phosphocellulose paper (Whatman p81), washed with 150 mM orthophosphoric acid and quantified with a PhosphorImager (Molecular Dynamics, Inc.). Alternatively, labeled GST/TIF-IA was subjected to SDS-PAGE, blotted onto nitrocellulose, digested with trypsin and analyzed by two-dimensional phosphopeptide mapping.
Phosphoamino acid analysis has established that TIF-IA is exclusively phosphorylated on serine residues (data not shown). The C-terminal tryptic peptide of TIF-IA contains three S—P sites (FIG. 4B, upper panel), a known target motif for MAPKs. […]

[3] = tested on: Pol I transcription; assay: Complementation of Pol I transcription in nuclear extracts from PD98059-treated FM3A cells; conditions: standard transcription system containing ATP and GTP
Procedure: (C) TIF-IA, but not UBF, rescues Pol I transcription in extracts from PD98059-treated cells. Nuclear extracts from untreated or PD98059-treated FM3A cells were supplemented with 20 and 40 ng of purified TIF-IA and/or UBF (10 ng in lanes 7 and 9, 50 ng in lanes 3, 8 and 10).
(D) TIF-IA activates transcription in extracts from PD98059-treated cells in the presence of AMP-PNP and GMP-PNP. Nuclear extracts from PD98059-treated FM3A cells were supplemented with 40 ng of purified TIF-IA and assayed in the standard transcription system containing ATP and GTP (ATP, lanes 1, 2) or AMP-PNP and GMP-PNP (AMP-PNP, lanes 3, 4)
(D) ERK/RSK-dependent phosphorylation activates Pol I transcription in vitro. Nuclear extracts from PD98059-treated FM3A cells were supplemented with 40 ng of TIF-IA, 10 ng of HA-RSK, or 10 ng of HA-ERK as indicated, and transcriptional activity was assayed in the standard transcription system containing ATP and GTP (lanes 4-8) or AMP-PNP and GMP-PNP (lanes 9-13).
as §1
To test whether both TIF-IA and UBF, or TIF-IA alone, were targeted by ERK-mediated phosphorylation, nuclear extracts from untreated and PD98059-treated cells were assayed for rDNA transcription in the absence and presence of exogenous TIF-IA or UBF (FIG. 2C). If both UBF and TIF-IA were inactivated by PD98059, rescue of Pol I transcriptional activity would require both factors, whereas TIF-IA alone would be sufficient if it was the only factor that is inactivated by inhibition of the ERK pathway. […]

Row | Molecule | phosphorylation by RSK2 in vitro [2] | other results
1 | S6K1: GST/myc-tagged S6 kinase purified from HEK293T cells | – | rescue of Pol I transcription in extracts from rapamycin-treated cells [1]: activated Pol I transcription to an extent that compared to that of exogenous TIF-IA
2 | GST/TIF-IA409-632: GST fusion of a TIF-IA C-terminal fragment lacking amino acids 633-651 (protein, UniProt Q9NYV6 409-632, looked up, fragment, GST fusion) SFLARAKFIPLITVKSCLDLLVNWLHIYLNNQDSGTKAFCDVALHGPFYSACQAVFYTFVFRHKQLLSGNLKEGLQYLQSLNFERIVMSQLNPLKICLPSVVNFFAAITNKYQLVFCYTIIERNNRQMLPVIRSTAGGDSVQICTNPLDTFFPFDPCVLKRSKKFIDPIYQVWEDMSAEELQEFKKPMKKDIVEDEDDDFLKGEVPQNDTVIGITPSSFDTHFR | not phosphorylated | –
3 | UBF: basal Pol I transcription initiation factor, FLAG-tagged UBF1 purified from Sf9 cells (protein, UniProt P17480 1-764, looked up, UBF1 FLAG tag, basal Pol I transcription initiation factor, FLAG-tagged UBF1 purified from Sf9 cells) Nucleolar transcription …: MNGEADCPTDLEMAAPKGQDRWSQEDMLTLLECMKNNLPSNDSSKFKTTESHMDWEKVAFKDFSGDMCKLKWVEISNEVRKFRTLTELILDAQEHVKNPYKGKKLKKHPDFPKKPLTPYFRFFMEKRAKYAKLHPEMSNLDLTKILSKKYKELPEKKKMKYIQDFQREKQEFERNLARFREDHPDLIQNAKKSDIPEKPKTPQQLWYTHEKKVYLKVRPDATTKEVKDSLGKQWSQLSDKKRLKWIHKALEQRKEYEEIMRDYIQKHPELNISEEGITKSTLTKAERQLKDKFDGRPTKPPPNSYSLYCAELMANMKDVPSTERMVLCSQQWKLLSQKEKDAYHKKCDQKKKDYEVELLRFLESLPEEEQQRVLGEEKMLNINKKQATSPASKKPAQEGGKGGSEKPKRPVSAMFIFSEEKRRQLQEERPELSESELTRLLARMWNDLSEKKKAKYKAREAALKAQSERKPGGEREERGKLPESPKRAEEIWQQSVIGDYLARFKNDRVKALKAMEMTWNNMEKKEKLMWIKKAAEDQKRYERELSEMRAPPAATNSSKKMKFQGEPKKPPMNGYQKFSQELLSNGELNHLPLKERMVEIGSRWQRISQSQKEHYKKLAEEQQKQYKVHLDLWVKSLSPQDRAAYKEYISNKRKSMTKLRGPNPKSSRTTLQSKSESEEDDEEDEDDEDEDEEEEDDENGDSSEDGGDSSESSSEDESEDGDENEEDDEDEDDDEDDDEDEDNESEGSSSSSSSSGDSSDSDSN | – | rescue of Pol I transcription in extracts from PD98059-treated cells [3]: had no effect
4 | GST/TIF-IA409-651: GST fusion of the C-terminal part of TIF-IA containing aa 410-651 (protein, UniProt Q9NYV6 410-651, looked up, fragment, GST fusion) FLARAKFIPLITVKSCLDLLVNWLHIYLNNQDSGTKAFCDVALHGPFYSACQAVFYTFVFRHKQLLSGNLKEGLQYLQSLNFERIVMSQLNPLKICLPSVVNFFAAITNKYQLVFCYTIIERNNRQMLPVIRSTAGGDSVQICTNPLDTFFPFDPCVLKRSKKFIDPIYQVWEDMSAEELQEFKKPMKKDIVEDEDDDFLKGEVPQNDTVIGITPSSFDTHFRSPSSSVGSPPVLYMQPSPL | efficiently phosphorylated | –
